From US20050221478A1, “Control of es cell self renewal and lineage specification, and medium therefor” (University of Edinburgh, priority 2002, published 2005)

How the values were obtained:
ES cells [1] = assay: Serum-free medium and transient growth factor stimulation: numbers of undifferentiated ES cells; format: cell-based; conditions: factor continuously present in LIF and BMP4 medium
Experimental: ES cells were grown initally in a medium comprising DMEM F12 plus neurobasal medium (ratio 1:1) supplemented with N2-B27. ES cells were plated at very low density, about 1000-10,000 cells on a 3.5 cm diameter plate and grown on in the same medium supplemented with LIF and BMP4. […]
We observed enhanced numbers of undifferentiated ES cells, indicating increased proliferation or increased ES cell survival, or both.
After more (5-6) passages the rank order of efficacy changed to:—

ES cells [2] = assay: Extended passaging of ES cells in serum free, feeder cell free defined culture media; format: cell-based, murine; conditions: after multiple passages in serum free medium
Source text: When using the LIF and BMP4-containing medium of a specific embodiment of the present invention extended passaging of ES cells is possible. In one example, murine ES cells have been maintained for more than 20 passages over a three month period. Cells were passaged every 2-4 days depending on the plating cell density, though occasionally cells were passaged 7-10 days after plating at low density.
In an alternative embodiment, it is an option not to remove the FGF receptor inhibitor. […] ES-cells can be grown in culture for at least 20 passages in. N2B27 medium in the presence of LIF and an FGF inhibitor, in the absence of BMP. If the FGF receptor inhibitor is not removed from the medium, it is preferred that it is a specific inhibitor and has little or no activity on other receptors.
N2B27 (1:1 mixture of DMEM/F12 medium supplemented with modified N2 (25 μg/ml insulin, 100 μg/ml apo-transferrin, 6 ng/ml progesterone, 16 μg/ml putrescine, 30 nM sodium selenite and 50 μg/ml bovine serum albumin) and Neurobasal medium supplemented with B27)
ES cells were cultured in 0.1% gelatin coated dishes in N2B27 medium supplemented with LIF (100 U/ml) and BMP4 (10 ng/ml). For passaging, a standard protein-free cell dissociation buffer was used to dissociate cells.
The plating density of the cells was approximately 1-5×10^4/cm^2. […]

ES cells [3] = assay: Self-renewal of pluripotent cells with agonists of a receptor of the TGF-β superfamily or FGF receptor inhibitor; format: cell-based

Row | Molecule | effect when continuously present (ES cells [1]) | differentiation of ES cells in the presence of BMP4 but absence of LIF (ES cells [2]) | result as agonist of a receptor of the TGF-β superfamily for self-renewal (ES cells [3])
1 | TGFβ: growth factor added to the culture medium at 1-2 ng/ml | progressive differentiation of the ES cells | – | –
2 | BMP4: bone morphogenetic protein, agonist of a receptor of the TGF-β superfamily (protein, UniProt P12644 293-408, looked up) Bone morphogenetic protein 4: SPKHHSQRARKKNKNCRRHSLYVDFSDVGWNDWIVAPPGYQAFYCHGDCPFPLADHLNSTNHAIVQTLVNSVNSSIPKACCVPTELSAISMLYLDEYDKVVLKNYQEMVVEGCGCR | – | differentiated into large flat cells of characteristic morphology | Good results
3 | activin A: growth factor added to the culture medium at 5 ng/ml (protein, UniProt P08476 311-426, looked up) Inhibin beta A chain: GLECDGKVNICCKKQFFVSFKDIGWNDWIIAPSGYHANYCEGECPSHIAGTSGSSLSFHSTVINHYRMRGHSPFANLKSCCVPTKLRPMSMLYYDDGQNIIKKDIQNMIVEECGCS | progressive differentiation of the ES cells | – | –
